Assay [1] deals with CD19+ B-cell. As to the kind of experiment: LPS-induced proliferation in HWB, flow cytometry, CD19. Format: cell-based, human. The note with it: 72 hrs. Here is the method: Flow cytometry was used to study the effect of S-isomer of a compound of formula A, Ubx, and combinations thereof on LPS-induced proliferation of CD19 and CD20 cells in HWB. In these experiments, 250 μl of diluted (1:3.5 with RPMI-HG Media) HWB sample was treated with either S-isomer of a compound of formula A (10 μM to 0.1 μM), UBX (100 μg/ml to 0.1 μg/ml) or UBX with S-isomer of a compound of formula A at 1000 nM for 15 minutes followed by 20 μg/ml LPS induction and incubated for 72 hrs at 37° C. and 5% CO2. 20 μl of treated sample was taken in a 1.5 ml centrifuge tube and labeled with CD20 FITC and CD19 PE antibody and incubated in the dark for 1 hour at RT. 1 ml of RBC lysing solution was added and tubes were centrifuged at 3000 rpm for 10 minutes. Supernatant was aspirated, and 250 μl of PBS was added to the pellet. Tubes were vortexed, and 5000 events were acquired on a Guava® easyCyte™ flow cytometer and analyzed with Incyte Software.
Gated population of lymphocytes positive cells were further analyzed for CD19 and CD20. Cells positive for CD19 and/or CD20 were calculated, and data were expressed as the percentage positive cells in the population. The loss of positive population from control with LPS induction was calculated and expressed as % inhibition with respect to control.
In general terms: Flow cytometry measures light scatter and fluorescence of single cells or particles in a stream.

The subject of assay [2] is Raji Cells. As to the kind of experiment: in situ caspase-3 kit, caspase 3 activity and combination index (Example 5). Format: cell-based. The note with it: 24 hrs; for Caspase 3 Activity: Raji cells. Here is the method: (§1) In order to determine the effect of S-isomer of a compound of formula A, UBX, and combinations thereof on apoptosis in cancer cells, an in situ caspase-3 kit (Millipore) was used. CELLS were plated in a 6 well plate at a concentration of 0.5×10^6 cells/ml, treated with either S-isomer of a compound of formula A (200-5000 nM), UBX (10,000 ng/ml to 10 ng/ml), or UBX with S-isomer of a compound of formula A (as indicated), and incubated for 24 hrs at 37° C. and 5% CO2. The cells were then transferred to microfuge tubes to receive 10 μl of freshly prepared FLICA™ reagent and incubated for 1 hour at 37° C. and 5% CO2 away from light. After extensive washes with wash buffer, test samples were adjusted to equalize the number of cells in PBS. 100 μl of each cell suspension was transferred to black 96-well plates in duplicates, and the fluorescence was read at an excitation wavelength of 490 nm and an emission wavelength of 520 nm in a plate reader. The fluorescence intensity for a DMSO control was subtracted from that of test compounds. Data was expressed as caspase-3 activity a combination index (C.I.) calculated.

In assay [3] the test system is LY1 Cells. The assay is described as above. Format: cell-based. As to conditions: for Caspase 3 Activity: LY1 cells, 24 hrs. Here is the method: as §1
Assay [4] relates to CD20-positive cells. The assay is described as follows: B cell depletion from human whole blood (HWB), flow cytometry, CD20. Format: cell-based. As to conditions: 24 hrs. How it is done: A flow cytometry assay was used to compare the ability of S-isomer of compound of formula A, Ublituximab (Ubx), and combinations thereof to deplete B cells from human whole blood (HWB). In this assay, 50 μl of HWB sample was treated with either S-isomer of a compound of formula A (1000 nM), UBX (100 μg/ml to 0.1 μg/ml), or UBX in combination with S-isomer of a compound of formula A at 1000 nM and incubated for 24 hrs at 37° C. and 5% CO2. 20 μl of treated sample was taken in a 1.5 ml centrifuge tube and labeled with CD45 FITC and CD19 PE or CD20 FITC antibody and incubated in the dark for 1 hour at RT. 1 ml of red blood cell (RBC) lysing solution was added, and tubes were centrifuged at 3000 rpm for 10 minutes. […] The tubes were vortexed, and 5000 events were acquired on a Guava® easyCyte™ flow cytometer and analyzed with Incyte Software.
Gated population of CD45-positive cells were further analyzed for CD19. The number of cells that were positive for CD45 and CD19 was calculated, and the data was expressed as the percentage of CD19 positive cells in the population. CD20-positive populations were gated with fluorescence positive minus unlabeled cells, and the data was expressed as the percentage of CD20-positive cells in the population. The loss of CD19/CD20 population from control was calculated and expressed as % depletion with respect to control.

In assay [5] the test system is Daudi, RPMI-8226, Raji, and U266B1 cells. As to the kind of experiment: in situ caspase-3 kit, apoptosis (Example 3), cell lines tested. Format: cell-based. As to conditions: 24 hrs. Here is the method: In order to determine the effect of S-isomer of a compound of formula A, UBX, and combinations thereof on apoptosis in cancer cells, an in situ caspase-3 kit (Millipore) was used. Cells were plated in a 6 well plate at a concentration of 0.5×10^6 cells/ml, treated with either S-isomer of a compound of formula A (1000 nM), UBX (100 μg/ml to 0.1 μg/ml), or UBX with S-isomer of a compound of formula A at 1000 nM, and incubated for 24 hrs at 37° C. and 5% CO2. The cells were then transferred to microfuge tubes to receive 10 μl of freshly prepared FLICA™ reagent and incubated for 1 hour at 37° C. and 5% CO2 away from light. After extensive washes with wash buffer, test samples were adjusted to equalize the number of cells in PBS. 100 μl of each cell suspension was transferred to black 96-well plates in duplicates, and the fluorescence was read at an excitation wavelength of 490 nm and an emission wavelength of 520 nm in a plate reader. The fluorescence intensity for a DMSO control was subtracted from that of test compounds. Data was expressed as a percent of the maximum response (100%) and plotted accordingly.

Consider `CC(C)Oc1ccc(-c2nn([C@@H](C)c3oc4ccc(F)cc4c(=O)c3-c3cccc(F)c3)c3ncnc(N)c23)cc1F` [S-isomer, (S)-2-(1-(4-amino-3-(3-fluoro-4-isopropoxyphenyl)-1H-pyrazolo[3,4-d]pyrimidin-1-yl)ethyl)-6-fluoro-3-(3-fluorophenyl)-4H-chromen-4-one], for which the inhibition – broadly, the relative decrease from the control value, in per cent – at 1 µM in assay [1] (Homo sapiens, B-cell, 1 μM) is ~60%. Further, the “Caspase 3 Activity” value in assay [2] (S-isomer 200 nM) was 0.36; in assay [2] (S-isomer 1000 nM), 0.56; in assay [2] (S-isomer 5000 nM), 0.80; in assay [3] (S-isomer 200 nM) it was 0.06; in assay [3] (S-isomer 1000 nM) it was 0.17; in assay [3] (S-isomer 5000 nM) it was 0.61. For the same molecule, the “reduction in CD20-positive HWB B-cells” value in assay [4] (1 μM) is given as “not observed”. Also, in assay [5] (1 μM, cell lines), the Caspase-3 activity increase is recorded as 40-75%.

B1: UBX: monoclonal antibody that targets a specific and unique epitope on CD20, bioengineered for enhanced clinical activity and potency (antibody, V domains shown)
VH: QAYLQQSGAELVRPGASVKMSCKASGYTFTSYNMHWVKQTPRQGLEWIGGIYPGNGDTSYNQKFKGKATLTVGKSSSTAYMQLSSLTSEDSAVYFCARYDYNYAMDYWGQGTSVTVSS
VL: QIVLSQSPAILSASPGEKVTMTCRASSSVSYMHWYQQKPGSSPKPWIYATSNLASGVPARFSGSGSGTSYSFTISRVEAEDAATYYCQQWTFNPPTFGGGTRLEIK
modifications: antibody fragment
B1: the “effect on CD19+ cells (LPS-induced proliferation)” value in assay [1] was “minimal effect”. The “Caspase 3 Activity” value came to 0.18 in assay [2] (UBX 10 ng/ml); 0.31 in assay [2] (UBX 100 ng/ml); 0.51 in assay [2] (UBX 1000 ng/ml); 0.60 in assay [2] (UBX 10,000 ng/ml); 0.23 in assay [3] (UBX 10 ng/ml); 0.32 in assay [3] (UBX 100 ng/ml). Also, the “Caspase 3 Activity” value in assay [3] (UBX 1000 ng/ml) is on record as 0.53; in assay [3] (UBX 10,000 ng/ml) it was 0.59. Also, the caspase-3 activity result in assay [2] (Raji) was “induced”; in assay [3] (LY1, 24 hrs) it was “induced”. Also, the “reduction in CD20+ B-cells” value in assay [4] (human whole blood) is “dose-dependent reduction”. The “ability to induce Caspase-3 activity” value in assay [5] (cell lines tested) is recorded as “limited ability”.

(Values after US10729768B2, “Combination of anti-CD20 antibody and PI3 kinase selective inhibitor” (TG Therapeutics, Inc., priority 2012, dated 2020).)
